This is an account of results in patent US20080132681A1.

Several values for one entry are separate records, joined by “and”; a condition that tells them apart may be missing. Equal values may be shown once.

This assay deals with IFNα receptor 2 (IFNAR2) on THP-1 cells (human) (UniProt P48551). Description: cell-based or functional assay.
Chain of UniProt P48551 (P48551 27-515): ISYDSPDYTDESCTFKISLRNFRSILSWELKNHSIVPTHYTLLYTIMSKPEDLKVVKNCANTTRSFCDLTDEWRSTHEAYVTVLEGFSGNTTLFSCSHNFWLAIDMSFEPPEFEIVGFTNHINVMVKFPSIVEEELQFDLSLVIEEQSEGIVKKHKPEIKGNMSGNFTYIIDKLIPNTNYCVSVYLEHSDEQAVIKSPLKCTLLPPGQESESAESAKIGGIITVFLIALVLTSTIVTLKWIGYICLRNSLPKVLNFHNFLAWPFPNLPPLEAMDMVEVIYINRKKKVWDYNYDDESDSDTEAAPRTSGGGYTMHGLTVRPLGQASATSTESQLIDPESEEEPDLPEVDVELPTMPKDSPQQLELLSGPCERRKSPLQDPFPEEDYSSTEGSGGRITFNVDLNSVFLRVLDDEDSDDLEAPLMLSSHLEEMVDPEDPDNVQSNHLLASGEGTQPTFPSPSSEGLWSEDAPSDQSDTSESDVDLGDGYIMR

On to “6HisC1G/C98 IFNα-2a + limitin loop (from UniProt P01563 25-188) (ligand)”, for which the pSTAT1 EC50 (THP-1 cells) was 30 pM and 34.8 pM.
